Tests used:
[1] = biological target: SARS-CoV-2 spike protein receptor binding domain (RBD) (SARS-CoV-2, UniProt P0DTC2 319-539); test: ELISA, RBD coated on plate, mAb titrated
[2] = biological target: SARS-CoV-2 spike protein receptor binding domain (RBD) (SARS-CoV-2, UniProt P0DTC2 319-539); test: ELISA on plate-coated RBD

| Binder | EC50 [1] [ng/mL] | EC50 [2] [ng/mL] |
| --- | --- | --- |
| C550 (antibody, V domains shown) VH: EVQLVQSGAEVKKPGESLKISCKGSGYRFTNYWIGWVRQMPGKGLEWMGIIYPGDSDTRYSPSFQGQVTISADKSITTAYLQWSSLKASDTAMYYCARLSDRWYSPFDPWGQGTLVTVSS VL: not shown | 2.56 | – |
| C552 (antibody, V domains shown) VH: QVQLVESGGGVVQPGRSLRLSCAASGFTFSSYAMHWVRQAPGKGLEWVALISYDGSNKHYADSVKGRFTISRDNSKNTLYLQMNSLRAEDTAVYYCARAGTTNSDYFDYWGQGTLVTVSS VL: SYELTQPPSVSVAPGKTARITCGGNNIGSKSVHWYQQKPGQAPVLVIYYDTDRPSGIPERFSGSNSGNTATLTISRVEAGDEADYYCQVWDSSSALWVFGGGTKLTVL | 1.08 | – |
| C553 (antibody, V domains shown) VH: QVQLVESGGGVVQPGRSLRLSCAASGFTFSNYEIHWVRQAPGKGLEWVAGISYDGSTKYYADSVKGRFTISRDNSKNTLYLQMNSLRPEDTAVFYCARAGTTNSDYFDYWGQGTLVTVSS VL: SYELTQPPSVSVAPGMTARITCGGNTIGSKSVHWYQQKAGQAPVLVIYYDSDRPSGIPERFSGSNSGNTATLTISRVEAGDEADYYCQVWDSSSVLWVFGGGTKLTVL | 1.19 | – |
| C555 (antibody, V domains shown) VH: EVQLVESGGGLVKPGGSLRLSCAASGLTFSTTWMSWVRQAPGKGLEWVGRIKSKGDGGTTDFAGPVKGRFSISRDDSKNTLYLHMNSLKTEDTAVYYCTTDDPGSYYYGMDVWGQGTTVTVSS VL: QTVVTQEPSLTVSPGGTVTLTCASSTGAVTSGHYPYWFQQKPGQAPRTLIYATSNKHSWTPARFSGSLLGGKAALTLSGAQPEDEADYYCLLSYSGARVFGGGTKLTVL | 2.88 | – |
| C556 (antibody, V domains shown) VH: QVQLVQSGAEVKKPGASVKVSCKASGYTFTYYYMHWVRQAPGQGLEWMGIINPSGGSTSYAQKFQGRVTMTRDTSTSTVYMELSSLRSEDTAVYYCARPLLPGETGSLNRLDYWGQGTLVTVSS VL: not shown | 1.36 | – |
| C558 (antibody, V domains shown) VH: EVQLVQSGAEVKKPGESLKISCKVSGYTFTNYWIGWVRQMPGKGLEWMGIIYPGDSDTRYSPSFQGQVTISADKSIITAYLQWSSLKASDTAMYYCARVPSSSDYGDYGGFEYWGQGTLVTVSS VL: not shown | 2.41 | – |
| C568 (antibody, V domains shown) VH: QVQLVQSGAEVKKPGASVKVSCTASGYTFSSYYIHWVRQAPGQGLEWMGIINPGAGSTSYAQKFQGRVAMTTDTSTRTVYMELSSLRSDDTAVYYCARDEAFLPSAIFVGDYWGQGTLVTVSS VL: DIQMTQSPSSLSASVGDRVTITCRASQGIRNDLGWYQQKPGKAPKRLIYAASNLQSGVPSRFSGSGSGTEFTLTISSLQPEDFATYYCLQHSTYPHTWTFGQGTKVEIK | – | 5.99 |
| C569 (antibody, V domains shown) VH: QVQLVESGGNVVQPGRSLRLSCAASGFTFSNYGMHWIRQAPGKGLEWVAVISYDGSDKYYADSVKGRVTISRDNSKNTLYLQMNSLRAEDTAVYYCAKGGPYGDHVRSDYWGLGTLVTVSS VL: DIQMTQSPSSLSASVGDRVTITCQASQDISNYLNWYQQKPGKVPKLLIYDASNLETGVPSRFSGSGSGTDFTFTISSLQPEDIATYYCQQFHNLPLTFGQGTKLEIK | – | 11.1 |
| C570 (antibody, V domains shown) VH: QVQLQESGPGLVKPSETLSLTCTVSGASISSYYWSWIRQPPGKGLEWIGYIYYSGSTNYNPSLKSRVTISLDTSKNQFSLQLSSVTAADTAVYYCATYYFDNSGYSYGLDVWGQGTTVTVSS VL: DIQMTQSPSSLSASVGDRVTIACRASQSISSYLHWYQQQPGKAPKLLIYAVTNLQSGVPSRFSGSGSGTDFTLTISSLQPEDFATYYCQQSYSLPQTFGQGTKVEIK | – | 0.74 |
| C571 (antibody, V domains shown) VH: EVQLVESGGGLIQPGGSLKLSCVVSGFTVSRNYISWVRQAPGKGLEWVSVLFAGGSTFYADSVKGRFAISRDNSNNTLFLQMNSLRVEDTAIYYCARGDGELIFDQWGQGTLVTVSS VL: QSVLTQPPSVSGAPGQRVTIVCTGTSSNIGAGYDVHWYQQLPGRAPKVLVSGNNIRPSEVPDRFSGSRSGTSASLAITSLQPEDEAQYYCQSYDSNLYAVFGGGTKLTVL | – | 4.63 |
| C572 (antibody, V domains shown) VH: EVQLVESGGGLIKPGRSLRLSCTASGFTFGDYAMTWFRQAPGKGLEWVGFIRSKAYGGTTGYAASVKYRFTISRDDSKSIAYLQMDSLKTEDTAVYYCTRWDGWSQHDYWGQGTLVTVSS VL: DIVMTQSPLSLSVTPGEPASISCRSSQSLLHSNGNNYFDWYLQKPGQSPQLLIYLASNRASGVPDRFSGSGSGTDFTLKISRVEAEDVGVYYCMQVLQIPYTFGQGTKLEI | – | 2.9 |
| C573 (antibody, V domains shown) VH: QVQLQESGPGLVKPSGTLSLTCAVSGGSISTVNWWSWVRQPPGKGLEWIGEIHHSGNTNHNPSLRSRVTISVDKSKNQFSLKLRSVTAADTAVYYCARDGGRPGDAFDLWGQGTMVTVSS VL: QSALTQPASVSGSPGQSITISCTGTSSDVGGYNYVSWYQQHPGKVPKVMIYDVSNRPSGISNRFSGSKSGNTASLTISGLQAEDEADYYCNSYRSNSTRVFGTGTKVTV | – | 2.2 |
| C574 (antibody, V domains shown) VH: QVQLVQSGAEVKKPGASVKVSCKASGYTFTSYGFSWVRQAPGQGLEWLGWISAYNGNTNYAQKLQGRVTMTTDTSTSTAYMELRSLRSDDTAVYYCARAIAVAGTSGEFDYWGQGTLVTVSS VL: not shown | – | 8.12 |
| C576 (antibody, V domains shown) VH: QVQLVQSGAEVKKPGSSVKVSCKASGGTFSIYAISWVRQAPGQGLEWMGGIIPILGTANYAQKFQGRVTITADESTSTAYMELSSLRSEDTAVYYCASFHVAYGDYIPFDYWGQGTLVTVSS VL: not shown | – | 5.29 |
| C577 (antibody, V domains shown) VH: QVQLVQSGAEVKKPGSSVKVSCKASGDTFSIYAFSWVRQAPGQGLQWMGAIIPLLGTTNYAQKFLGRVTITADESTSTTFMELSSLTSEDTAVYHCATFHVAYGDYIPFDSWGQGTLVIVSS VL: not shown | – | 1.32 |
| C578 (antibody, V domains shown) VH: QVQLVESGGGVVQPGRSLRLSCAASGFTFSSSGMHWVRQAPGKGLEWVAIISYDGSNKYYADSVKGRFTISRDNSKNTLSLQMNSLRAEDTAVYYCAKDPLPFRDFFYYYMDVWGKGTTVTVSS VL: QSALTQPASVSGSPGQSITISCTGTSSDVGGYNYVSWYQQHPGKAPKLMIYDVSNRPSGVSNRFSGSKSGNTASLTISGLQAEDEADYYCSSYTSSSTLGVFGTGTKVTVL | – | 1.08 |
| C580 (antibody, V domains shown) VH: EVQLVQSGAEVKKAGESLKISCNSSGYSFTNYWIAWVRQVPGKGLEWMGIIYLGDSDTRYSPSFQGRVTISADKSISAAYLHWSSLKASDTAIYYCARGGPPGGVKLELTDFWGQGTLVTVSS VL: not shown | – | 1.82 |
| C581 (antibody, V domains shown) VH: EVQLVQSGAEVKKPGESLKISCKGSGYRFTSYWIAWVRQMPGKGLEWMGIIYPGDSDTRYSPSFQGQVTISADQSISTAYLQWSSLKASDTAMYYCARGGPPGGVKLELTDYWGQGALVTVSS VL: not shown | – | 1.58 |
